The values below come from US20140179896A1 (published 2014).

Substitutions are numbered along the chain they refer to.

This experiment addresses T1, human vascular endothelial growth factor receptor-2 Fc chimera (KDR-Fc) (human, UniProt P35968 20-764).
T1 construct: range 1-764; purchased from R&D Systems; also called hKDR; human VEGF-R2-Fc; not shown: human IgG1 Fc
As to the kind of experiment: radioactive equilibrium binding, 1 nM KDR-Fc. The gist of the method:
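Percent of input bound is specific binding: total ³⁵S eluted from Protein A beads minus nonspecific bead binding without receptor. The binder (0.2 or 0.5 nM) was incubated with titrated VEGF-R2-Fc in buffer B, 30° C, 1 h.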

T1 sequence (P35968 20-764 limits assumed, change not shown, form in doubt): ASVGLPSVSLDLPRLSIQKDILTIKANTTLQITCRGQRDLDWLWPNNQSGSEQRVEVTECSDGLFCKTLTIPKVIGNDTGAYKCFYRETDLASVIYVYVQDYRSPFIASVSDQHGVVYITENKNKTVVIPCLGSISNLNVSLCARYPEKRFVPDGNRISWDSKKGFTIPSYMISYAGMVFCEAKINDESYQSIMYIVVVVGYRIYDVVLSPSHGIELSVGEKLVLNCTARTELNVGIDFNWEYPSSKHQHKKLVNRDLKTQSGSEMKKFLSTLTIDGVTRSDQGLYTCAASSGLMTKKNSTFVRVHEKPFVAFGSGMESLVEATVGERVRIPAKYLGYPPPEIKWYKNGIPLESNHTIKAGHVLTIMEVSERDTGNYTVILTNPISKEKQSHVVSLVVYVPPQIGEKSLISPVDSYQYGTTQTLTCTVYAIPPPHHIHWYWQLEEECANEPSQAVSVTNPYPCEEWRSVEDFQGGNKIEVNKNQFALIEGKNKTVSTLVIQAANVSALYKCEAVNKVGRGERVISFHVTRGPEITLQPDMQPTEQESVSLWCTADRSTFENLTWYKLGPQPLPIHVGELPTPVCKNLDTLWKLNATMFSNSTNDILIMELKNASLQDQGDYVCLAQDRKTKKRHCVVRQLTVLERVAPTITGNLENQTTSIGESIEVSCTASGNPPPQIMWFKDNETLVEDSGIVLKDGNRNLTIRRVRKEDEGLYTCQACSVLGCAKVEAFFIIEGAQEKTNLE

B1: 4A12 PR3 (designed binder)
chain: EVVAATPTSLLISWRHPHFPTRYYRITYGETGGNSPVQEFTVPLQPPTATISGLKPGVDYTITGYAVTVAQNDHELLTPISINYRT
notes: tag left out
B1: the “Binding to 1 nM KDR, %” value turned out to be 13%.

B2: 3D4 PR3 (designed binder)
chain: B1 chain with A70G, Q71W, L77I
notes: tag left out
For B2, the “Binding to 1 nM KDR, %” value was found to be 10%.

B3: 1′DelC6 PR4 (designed binder)
chain: B1 chain with D73E
notes: tag left out
For the molecule B3, the “Binding to 1 nM KDR, %” value is 12%.

B4: 1′DelE11 PR4 (designed binder)
chain: B1 chain with H74R, L77I
notes: tag left out
For the molecule B4, the “Binding to 1 nM KDR, %” value was determined as 9%.

B5: 1′DelG11 PR4 (designed binder)
chain: B1 chain with V69L, D73G, E75V, L77I
notes: tag left out
Turning to B5, the “Binding to 1 nM KDR, %” value was 11%.

B6: 1′DelE12 PR4 (designed binder)
chain: B1 chain with N72S, L77F
notes: tag left out
For B6, the “Binding to 1 nM KDR, %” value turned out to be 13%.

B7: 1′DelG9 PR4 (designed binder)
chain: B1 chain with N72S, L77M
notes: tag left out
Consider B7, for which the “Binding to 1 nM KDR, %” value is 10%.

B8: 1′DelH6 PR4 (designed binder)
chain: B1 chain with A70G, N72Y, L77I
notes: tag left out
In the case of B8, the “Binding to 1 nM KDR, %” value was 6%.

B9: 1′DelC10 PR4 (designed binder)
chain: B1 chain with Q71K, L77I
notes: tag left out
For B9, the “Binding to 1 nM KDR, %” value is 8%.

B10: 1′DelB10 PR4 (designed binder)
chain: B1 chain with Q71R, L77M
notes: tag left out
In the case of B10, the “Binding to 1 nM KDR, %” value came out at 11%.

B11: 3E6 PR3 (designed binder)
chain: B1 chain with A70P, D73G, L77I, P79M
notes: tag left out
For B11, the “Binding to 1 nM KDR, %” value was 12%.

B12: 3′E6 PR4 (designed binder)
chain: B1 chain with V69F, A70G, D73G, H74K, L76F, L77R, T78I
notes: tag left out
As to B12, the “Binding to 1 nM KDR, %” value came to 5%.

B13: 3D11 PR3 (designed binder)
chain: B1 chain with V69L, A70G, N72E, D73N, H74Q, L77I
notes: tag left out
In the case of B13, the “Binding to 1 nM KDR, %” value stood at 10%.

B14: 1′DelB7 PR4 (designed binder)
chain: B1 chain with L77K
notes: tag left out
Take B14: the “Binding to 1 nM KDR, %” value worked out at 8%.

B15: 2′Del E12 PR4 (designed binder)
chain: B1 chain with V69E, A70G, Q71P, D73G, L77I
notes: tag left out
Regarding B15, the “Binding to 1 nM KDR, %” value amounted to 13%.

B16: 1′DelD3 PR4 (designed binder)
chain: B1 chain with V69L, D73N, L77I
notes: tag left out
For the molecule B16, the “Binding to 1 nM KDR, %” value turned out to be 12%.

B17: 3A8 PR3 (designed binder)
chain: B1 chain with V69E, Q71H, N72H, D73G, L77M, T78I
notes: tag left out
For B17, the “Binding to 1 nM KDR, %” value stood at 12%.

B18: 4C4 PR3 (designed binder)
chain: B1 chain with N72D, L77F
notes: tag left out
In the case of B18, the “Binding to 1 nM KDR, %” value was found to be 10%.

B19: 3F1 PR3 (designed binder)
chain: B1 chain with V69L, A70T, Q71H, D73E, H74Q, E75Y, L77F
notes: tag left out
For B19, the “Binding to 1 nM KDR, %” value was 9%.

B20: 3′A3 PR4 (designed binder)
chain: B1 chain with V69R, L77I
notes: tag left out
For B20, the “Binding to 1 nM KDR, %” value amounted to 9%.

B21: 1′DelC5 PR4 (designed binder)
chain: B1 chain with V69L, L76I, L77M
notes: tag left out
As for B21, the “Binding to 1 nM KDR, %” value stood at 11%.

B22: 4B7 PR3 (designed binder)
chain: B1 chain with A70T, L77F
notes: tag left out
Regarding B22, the “Binding to 1 nM KDR, %” value turned out to be 13%.

B23: 3F11 PR3 (designed binder)
chain: B1 chain with A70G, Q71L, N72T, E75V
notes: tag left out
In the case of B23, the “Binding to 1 nM KDR, %” value was determined as 10%.

B24: 3F5 PR3 (designed binder)
chain: B1 chain with Q71Y, D73E, L77Y
notes: tag left out
On to B24, for which the “Binding to 1 nM KDR, %” value was determined as 11%.

B25: 4C11 PR3 (designed binder)
chain: B1 chain with V69M, H74R, L77I
notes: tag left out
Take B25: the “Binding to 1 nM KDR, %” value turned out to be 14%.

B26: 3H9 PR3 (designed binder)
chain: B1 chain with A70S, N72Q, D73N
notes: tag left out
Take B26: the “Binding to 1 nM KDR, %” value came to 11%.

B27: 3′F7 PR4 (designed binder)
chain: B1 chain with V69E, A70G, D73G, H74S, L77I, T78V
notes: tag left out
Regarding B27, the “Binding to 1 nM KDR, %” value is 14%.

B28: 3′D4 PR4 (designed binder)
chain: B1 chain with V69L, Q71H, H74R, L77I
notes: tag left out
Regarding B28, the “Binding to 1 nM KDR, %” value was 12%.

B29: 1′DelC4 PR4 (designed binder)
chain: B1 chain with N72S, D73N, L77M
notes: tag left out
Turning to B29, the “Binding to 1 nM KDR, %” value was 9%.

B30: 4A2 PR3 (designed binder)
chain: B1 chain with D73A, L77M
notes: tag left out
On to B30, for which the “Binding to 1 nM KDR, %” value turned out to be 8%.

B31: 1′DelA9 PR4 (designed binder)
chain: B1 chain with V69L, L77M
notes: tag left out
Regarding B31, the “Binding to 1 nM KDR, %” value was 13%.

B32: 3F4 PR3 (designed binder)
chain: B1 chain with V69M, A70G, Q71Y, N72E, L77I
notes: tag left out
As to B32, the “Binding to 1 nM KDR, %” value was determined as 10%.

B33: 2′Del F12 PR4 (designed binder)
chain: B1 chain with V69L, A70T, N72H
notes: tag left out
As to B33, the “Binding to 1 nM KDR, %” value was found to be 7%.

B34: 1′DelH9 PR4 (designed binder)
chain: B1 chain with A70G, L77I
notes: tag left out
In the case of B34, the “Binding to 1 nM KDR, %” value is 10%.

B35: 4A3 PR3 (designed binder)
chain: B1 chain with N72D, D73E, L77I
notes: tag left out
With B35, the “Binding to 1 nM KDR, %” value turned out to be 6%.

B36: 2′DelH2 PR4 (designed binder)
chain: B1 chain with A70S, N72Y, D73G, L77I
notes: tag left out
Turning to B36, the “Binding to 1 nM KDR, %” value is 8%.

B37: 3G1 PR3 (designed binder)
chain: B1 chain with V69M, D73V, H74R
notes: tag left out
For the molecule B37, the “Binding to 1 nM KDR, %” value is 13%.

B38: 3′D12 PR4 (designed binder)
chain: B1 chain with V69G, A70E, H74Y, T78V
notes: tag left out
For the molecule B38, the “Binding to 1 nM KDR, %” value was 7%.

B39: 3′E8 PR4 (designed binder)
chain: B1 chain with H74R, E75Q, L77F
notes: tag left out
Turning to B39, the “Binding to 1 nM KDR, %” value worked out at 12%.

B40: 3′E4 PR4 (designed binder)
chain: B1 chain with A70G, Q71P, H74R, L77I, T78V
notes: tag left out
Take B40: the “Binding to 1 nM KDR, %” value amounted to 12%.

B41: 1′DelH1 PR4 (designed binder)
chain: B1 chain with D73G, L77I
notes: tag left out
Turning to B41, the “Binding to 1 nM KDR, %” value came to 9%.

B42: 2′DelB11 PR4 (designed binder)
chain: B1 chain with A70G, L77M
notes: tag left out
On to B42, for which the “Binding to 1 nM KDR, %” value worked out at 11%.

B43: 3C5 PR3 (designed binder)
chain: B1 chain with V69G, A70D, Q71H, H74R, L77M
notes: tag left out
Consider B43, for which the “Binding to 1 nM KDR, %” value amounted to 12%.

B44: 3G10 PR3 (designed binder)
chain: B1 chain with A70V, Q71H, D73G, L76I
notes: tag left out
Take B44: the “Binding to 1 nM KDR, %” value was determined as 10%.

B45: 4B6 PR3 (designed binder)
chain: B1 chain with A70G, L77F
notes: tag left out
Regarding B45, the “Binding to 1 nM KDR, %” value was determined as 14%.

B46: 1′DelC2 PR4 (designed binder)
chain: B1 chain with A70D, Q71R, L77F
notes: tag left out
B46: the “Binding to 1 nM KDR, %” value is 13%.

B47: 2′DelB10 PR4 (designed binder)
chain: B1 chain with A70T, Q71H
notes: tag left out
Regarding B47, the “Binding to 1 nM KDR, %” value worked out at 11%.

B48: 2′DelB9 PR4 (designed binder)
chain: B1 chain with A70G, Q71P, N72T
notes: tag left out
Consider B48, for which the “Binding to 1 nM KDR, %” value was determined as 11%.

B49: 1′DelH7 PR4 (designed binder)
chain: B1 chain with A70G, H74Q
notes: tag left out
In the case of B49, the “Binding to 1 nM KDR, %” value was 11%.

B50: 3G5 PR3 (designed binder)
chain: B1 chain with V69L, A70G, Q71E, H74R, E75K, L77I
notes: tag left out
As for B50, the “Binding to 1 nM KDR, %” value was determined as 13%.

B51: 2′F6-PR4 (designed binder)
chain: VSDVPRDLEVVAATPTSLLISWRHPHFPTRYYRITYGETGGNSPVQEFTVPLQPPTATISGLKPGVDYTITGYAVTLGWNDHELYIPISINYRT
notes: tag left out
Turning to B51, the “Binding to 1 nM KDR, %” value was determined as 4%.

B52: 2′F7-PR4 (designed binder)
chain: B51 chain with W79L, N80R, H82R, Y85F, I86V
notes: tag left out
Regarding B52, the “Binding to 1 nM KDR, %” value was found to be 5%.

B53: 2′G11-PR4 (designed binder)
chain: B51 chain with L77G, W79Q, N80M, D81N, H82R, E83V, Y85M, I86T
notes: tag left out
Turning to B53, the “Binding to 1 nM KDR, %” value was 12%.

B54: 2′H5-PR4 (designed binder)
chain: B51 chain with W79K, N80D, D81V, H82R, Y85L, I86T
notes: tag left out
With B54, the “Binding to 1 nM KDR, %” value came out at 3%.
